Numbering of substitutions follows the chain as printed.
T1: human NPRB on HEK293 cells, without added ligand (human, UniProt P20594 23-1047)
T1 construct: whole, on cells; also called HEK NPRB cells; natriuretic peptide receptor B
T1 sequence (looked up): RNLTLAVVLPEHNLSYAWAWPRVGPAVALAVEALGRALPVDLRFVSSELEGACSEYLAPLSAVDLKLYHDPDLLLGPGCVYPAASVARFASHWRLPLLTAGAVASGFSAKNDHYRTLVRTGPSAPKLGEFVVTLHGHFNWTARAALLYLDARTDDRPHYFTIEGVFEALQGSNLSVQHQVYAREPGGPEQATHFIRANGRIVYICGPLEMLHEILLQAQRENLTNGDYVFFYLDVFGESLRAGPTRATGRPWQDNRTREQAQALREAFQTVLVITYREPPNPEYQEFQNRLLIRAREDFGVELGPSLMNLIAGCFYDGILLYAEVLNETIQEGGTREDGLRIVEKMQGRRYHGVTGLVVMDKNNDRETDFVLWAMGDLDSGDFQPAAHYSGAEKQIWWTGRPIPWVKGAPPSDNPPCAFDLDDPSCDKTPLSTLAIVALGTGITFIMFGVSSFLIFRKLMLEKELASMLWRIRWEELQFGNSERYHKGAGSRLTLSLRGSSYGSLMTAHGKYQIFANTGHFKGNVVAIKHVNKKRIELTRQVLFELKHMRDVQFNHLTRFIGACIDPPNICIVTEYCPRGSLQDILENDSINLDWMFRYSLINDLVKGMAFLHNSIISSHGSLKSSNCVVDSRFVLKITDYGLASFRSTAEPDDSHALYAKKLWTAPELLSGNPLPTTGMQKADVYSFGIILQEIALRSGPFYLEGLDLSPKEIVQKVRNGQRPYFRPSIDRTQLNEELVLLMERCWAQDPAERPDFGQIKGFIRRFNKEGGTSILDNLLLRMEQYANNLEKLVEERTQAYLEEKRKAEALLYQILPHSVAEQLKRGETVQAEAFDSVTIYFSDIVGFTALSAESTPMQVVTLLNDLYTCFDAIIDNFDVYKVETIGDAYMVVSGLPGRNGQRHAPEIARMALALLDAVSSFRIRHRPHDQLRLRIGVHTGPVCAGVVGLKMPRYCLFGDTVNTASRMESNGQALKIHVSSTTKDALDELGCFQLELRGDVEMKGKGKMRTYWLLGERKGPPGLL

T2: rat NPRA on HEK cells bound to ANP (rat, UniProt P18910 29-1057; P01161 123-150)
T2 construct: whole, on cells;mature; also called HEK293T-GCA
T2 sequence (looked up): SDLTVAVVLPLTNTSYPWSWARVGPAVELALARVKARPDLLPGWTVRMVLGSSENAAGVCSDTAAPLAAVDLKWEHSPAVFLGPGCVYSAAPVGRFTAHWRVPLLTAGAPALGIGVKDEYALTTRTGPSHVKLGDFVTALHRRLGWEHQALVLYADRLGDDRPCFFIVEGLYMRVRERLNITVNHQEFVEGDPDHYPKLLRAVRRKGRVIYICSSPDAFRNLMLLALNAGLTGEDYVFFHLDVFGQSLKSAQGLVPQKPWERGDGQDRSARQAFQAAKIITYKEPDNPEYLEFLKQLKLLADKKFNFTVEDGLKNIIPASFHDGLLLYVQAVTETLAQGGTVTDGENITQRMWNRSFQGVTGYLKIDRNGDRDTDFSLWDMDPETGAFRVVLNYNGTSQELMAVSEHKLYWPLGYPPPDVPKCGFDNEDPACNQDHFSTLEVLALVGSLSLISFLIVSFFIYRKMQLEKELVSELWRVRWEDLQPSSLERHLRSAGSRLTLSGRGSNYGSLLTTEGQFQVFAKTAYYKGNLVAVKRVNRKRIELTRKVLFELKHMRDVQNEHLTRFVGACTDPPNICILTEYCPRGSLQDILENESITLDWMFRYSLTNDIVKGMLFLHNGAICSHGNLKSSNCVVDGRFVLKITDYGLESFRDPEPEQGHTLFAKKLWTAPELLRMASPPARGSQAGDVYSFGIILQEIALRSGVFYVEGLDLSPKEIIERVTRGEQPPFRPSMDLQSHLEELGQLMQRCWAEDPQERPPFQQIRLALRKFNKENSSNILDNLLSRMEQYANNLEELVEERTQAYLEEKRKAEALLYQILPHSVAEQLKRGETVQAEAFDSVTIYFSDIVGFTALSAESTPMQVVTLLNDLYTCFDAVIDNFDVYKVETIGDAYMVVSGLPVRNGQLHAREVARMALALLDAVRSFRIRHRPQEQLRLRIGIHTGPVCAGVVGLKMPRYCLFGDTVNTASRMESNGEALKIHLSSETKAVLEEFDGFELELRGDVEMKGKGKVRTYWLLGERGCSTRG
T2 sequence (peptide, looked up): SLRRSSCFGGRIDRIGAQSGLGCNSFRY

B1: 5502 IgG4_Pro (antibody, V domains shown)
VH: QVQLQQSGPGLVKPSQTLSLTCAISGDSVSSRSASWSWIRQSPGRGLEWLGRIYYRSKWYNDYAVSVKSRITINPDTSKNQFSLQLNSVTPEDTAVYYCARMDVPSFRYFDVWGQGTLVTVSS
VL: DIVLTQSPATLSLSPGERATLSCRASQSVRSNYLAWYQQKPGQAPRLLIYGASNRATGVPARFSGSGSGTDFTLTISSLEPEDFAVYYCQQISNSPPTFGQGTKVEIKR
notes: Human IgG4_Pro
B2: 5591 IgG4_Pro (antibody, V domains shown)
VH: B1 VH with I53T, K58H, N61Y, D62E, V65Q
VL: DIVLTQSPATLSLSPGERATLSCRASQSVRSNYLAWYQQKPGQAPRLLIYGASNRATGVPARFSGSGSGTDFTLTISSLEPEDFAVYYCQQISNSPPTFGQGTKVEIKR

Tests used:
[1] = target: T1, human NPRB on HEK293 cells, without …; test: FACS, HEK NPRB cells without ligand
Description: HEK NPRA cells are detached with Accutase (PAA Laboratories GmbH, Cat. No. L11-007, Austria), harvested by centrifugation (900 rpm, 4 minutes) and resuspended in FACS buffer (PBS/3% FCS/0.02% NaN3) to a final concentration of 10⁶ cells/ml. 100 μl of the cell suspension is transferred to each well of a 96 round bottom plate (TC Microwell 96U, Nunc). […] Cells are washed in 150 μl of FACS buffer, pelleted and resuspended in 50 μl of the solution containing the primary antibody comprising a BEL extract of Fabs, a diluted BEL extract or purified antibody diluted in FACS buffer and incubated on ice for 30 min. Cells are washed again in FACS buffer and resuspended in 50 μl of FACS buffer containing the secondary antibody (R-Phycoerythrin-conjugated Affipure F(ab′)₂ Fragment Goat Anti-Human IgG, Dianova) and incubated on ice for 45 min. Cells are washed twice with FACS buffer and resuspended in 200 μl of FACS buffer for analysis in the FACS Array (BD Biosciences).

[2] = target: T2, rat NPRA on HEK cells bound to ANP; test: KinExA whole cell binding (Kd,app), HEK cells with rat NPRA, ANP bound
[3] = target: canine NPRA on HEK cells bound to ANP (canine, UniProt A0A8I3MHU3 32-1060); test: KinExA whole cell binding (Kd,app), HEK cells with canine NPRA, ANP bound
canine NPRA on HEK cells bound to ANP, sequence (A0A8I3MHU3 entry or part of it): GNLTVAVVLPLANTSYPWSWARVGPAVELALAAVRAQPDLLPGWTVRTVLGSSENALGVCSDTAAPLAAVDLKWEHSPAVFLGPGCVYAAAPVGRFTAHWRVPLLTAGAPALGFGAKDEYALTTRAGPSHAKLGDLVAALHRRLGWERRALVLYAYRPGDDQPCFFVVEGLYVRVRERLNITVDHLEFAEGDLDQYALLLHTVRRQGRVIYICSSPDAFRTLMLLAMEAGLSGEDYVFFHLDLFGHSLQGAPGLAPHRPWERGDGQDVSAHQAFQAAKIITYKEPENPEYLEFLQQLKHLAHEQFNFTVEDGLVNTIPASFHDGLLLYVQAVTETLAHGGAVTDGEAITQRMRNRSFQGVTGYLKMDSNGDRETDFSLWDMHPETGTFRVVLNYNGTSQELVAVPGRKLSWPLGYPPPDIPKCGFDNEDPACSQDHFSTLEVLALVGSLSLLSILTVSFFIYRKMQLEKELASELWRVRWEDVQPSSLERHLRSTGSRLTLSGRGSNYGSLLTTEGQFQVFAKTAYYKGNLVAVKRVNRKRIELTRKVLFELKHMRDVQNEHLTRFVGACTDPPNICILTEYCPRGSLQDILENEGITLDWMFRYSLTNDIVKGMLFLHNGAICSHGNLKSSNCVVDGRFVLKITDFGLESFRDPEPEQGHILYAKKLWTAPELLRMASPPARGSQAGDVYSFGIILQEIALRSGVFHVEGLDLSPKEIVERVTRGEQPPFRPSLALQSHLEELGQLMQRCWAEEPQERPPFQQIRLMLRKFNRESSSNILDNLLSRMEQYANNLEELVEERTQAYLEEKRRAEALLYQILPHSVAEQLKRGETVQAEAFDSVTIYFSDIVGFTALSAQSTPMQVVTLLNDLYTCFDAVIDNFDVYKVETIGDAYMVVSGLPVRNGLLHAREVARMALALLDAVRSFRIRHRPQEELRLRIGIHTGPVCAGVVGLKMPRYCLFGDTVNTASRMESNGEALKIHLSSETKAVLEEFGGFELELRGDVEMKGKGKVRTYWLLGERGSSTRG

Binder | binding result [1] | Kd [2] | Kd [3]
B1 | no binding (tested: 20 nM) |  | 
B2 |  | 0.013 nM | 0.096 nM
